Positions count from the first letter of the chain named. Numbers in names are those of the source.
T1: C. elegans LIN9-LIN52 heterodimeric Myb-binding domain complex (C. elegans, UniProt P30630 442-559; Q10120 75-139)
T1 construct: also called nematode LIN9-LIN52; ceLIN9; source: E. coli, co-expressed, purified (glutathione-sepharose, anion exchange, TEV cleavage, Superdex 200); not shown: GST, N-terminal, cleaved
T1 sequence (looked up) 1: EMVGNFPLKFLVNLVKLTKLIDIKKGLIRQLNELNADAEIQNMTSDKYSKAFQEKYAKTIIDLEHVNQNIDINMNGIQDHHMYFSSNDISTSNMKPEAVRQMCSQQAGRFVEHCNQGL
T1 sequence (looked up) 2: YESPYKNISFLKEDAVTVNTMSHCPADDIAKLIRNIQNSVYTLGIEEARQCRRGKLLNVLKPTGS

B1: Drosophila melanogaster Myb MuvB-binding domain (residues 602-632), wild type (domain or fragment, D. melanogaster, UniProt P04197 602-632, looked up)
chain: VIDPKWARVACGKSRDQMFMEEQAYACLKNL
notes: Expressed from the pGEX vector and 'purified as described for the LIN9-LIN52 complex'; also called Drosophila Myb; dmMyb; source: E. coli, purified (glutathione-sepharose, anion exchange, TEV cleavage, Superdex 200); not shown: GST, N-terminal, cleaved
B2: Drosophila melanogaster Myb MuvB-binding domain (residues 602-632), K606A/W607A double-substitution mutant (domain or fragment, D. melanogaster, UniProt P04197 602-632, looked up)
chain: B1 chain with K5A, W6A
notes: Expressed from the pGEX vector and 'purified as described for the LIN9-LIN52 complex'; also called KW; source: E. coli, purified (glutathione-sepharose, anion exchange, TEV cleavage, Superdex 200); not shown: GST, N-terminal, cleaved

Tests used:
[1] = molecular target: Drosophila LIN9-LIN52 heterodimeric Myb-binding domain complex (D. melanogaster); experiment: ITC; Myb fragment (~500 μM) in the syringe injected into LIN9-LIN52 heterodimer (~25–50 μM) at 25°C; 20 mM Tris, 150 mM NaCl, 1 mM beta mercaptoethanol, pH 8.0; MicroCal VP-ITC; triplicate
[2] = molecular target: T1, C. elegans LIN9-LIN52 heterodimeric …; experiment: as above; conditions: both partners purified

Binder	Kd [1] [µM]	Kd [2] [µM]
B1	3	7
B2	41	70

From paper PMC7225089, “A long lost key opens an ancient lock: Drosophila Myb causes a synthetic multivulval phenotype in nematodes” (Biology Open, 2020)
